According to the supplement of paper PMC10126150:
± gives the standard deviation of the averaged measurements.

System: ATP
Experiment: switch fluorescence ratio, 500 uM ATP over buffer (Cy3 cluster intensity, sum of 5 cycles each) (fold (ratio)); higher = stronger signal-on switching upon ATP binding; sequences stand for … in TCGTCGGCAGCGTCAGATGTGTATAAGAGACAGTTTTTTTTTTTTTTTTTTTTTTTTT…TC
Settings: aptamer strand: ATP DNA aptamer (quencher-CACCTGGGGGAGTATTGCGGAGGAAGG + anchor), 100 nM annealed; ATP concentration: 500 uM
Procedure, shortened: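 Cy3-labelled switching-strand clusters on a modified Illumina MiSeq flow-cell were annealed to 100 nM quencher-labelled ATP aptamer, imaged in selection buffer, then imaged after 15 min with 500 uM ATP at 22 °C. Five buffer/ATP cycles ran, with NaOH stripping and re-annealing between them. The fluorescence ratio is summed target-cycle over summed buffer-cycle Cy3 intensity per cluster, averaged per switch-domain sequence. Clusters outside 100-1000 RFU were excluded.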
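Further: ATP exposure 15 min at 22 °C before imaging.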

Point of comparison: TTTATGTTCG, switch fluorescence ratio 0.99 ± 0.02. Against it:
- GGGTAGGGAC — within error, 1.01 ± 0.026
- GCAAACGTTA — higher, 1.07 ± 0.043
- TTGGAGGCTC — within error, 1.03 ± 0.024
- GGTCGGGGAT — within error, 1.01 ± 0.022
- TATTAGGGTG — within error, 1.05 ± 0.098
- AAAGTTAATA — the same, 0.9897 ± 0.0064
- GTTTAAGGAG — within error, 1.02 ± 0.066
- TATTATATGG — within error, 1.03 ± 0.027
- CGTGTCCTCG — within error, 1.04 ± 0.088
- GTAGGAGGGG — within error, 0.985 ± 0.011
- GACATTTCTT — within error, 1.01 ± 0.011
- CGGAGGGTGT — within error, 0.997 ± 0.033
- TTGATTGGTA — within error, 1 ± 0.041
- CGAGTATGAA — within error, 0.989 ± 0.06
- TTCAAGCTGG — higher, 1.039 ± 0.0098
- ATGTTTGGTA — within error, 1.003 ± 0.0015
- GCAGGGGGCG — within error, 1.04 ± 0.051
- TAGGCGGCAC — within error, 1.03 ± 0.046
- GGGTACGTGT — within error, 0.989 ± 0.029
- TCCGGGTTTT — within error, 0.963 ± 0.019
- GGGTTGGAAA — within error, 0.989 ± 0.03
- TGTGTGGGAC — within error, 0.988 ± 0.025
- TTCAAGCAGA — higher, 1.034 ± 0.0087
- GAGTGACGGA — within error, 1 ± 0.054
- CGTAAGGGGG — within error, 1.02 ± 0.035
- GGAATAGTAG — within error, 1.003 ± 0.0065
- ACCTCCCGGG — within error, 1.13 ± 0.17
- GGCGGGAGGG — within error, 0.986 ± 0.029
- AGGTCGGTCT — within error, 0.995 ± 0.058
- AAAGATGAGG — within error, 0.974 ± 0.029
- GAGATTGTGT — within error, 0.9936 ± 0.0048
- TACATGAGTA — within error, 1.03 ± 0.023
- GTTGACGGGT — within error, 0.971 ± 0.025
- TTACCTCATT — within error, 1.02 ± 0.015
- TGTAAAAAGT — within error, 1 ± 0.026
- ATGAGCGACG — within error, 0.9921 ± 0.0088
- GGGAGTGGGG — within error, 0.989 ± 0.025
- GAGTTGACGG — higher, 1.03 ± 0.013
- ATAAGACCGT — within error, 1.015 ± 0.0046
- GATGCGGCTA — within error, 1.02 ± 0.018
- TGGGCAGGAC — within error, 1.41 ± 0.49
- TGTGTCCTGC — within error, 0.965 ± 0.016
- TTCGGTGGGT — within error, 0.988 ± 0.027
- TGGGGGAACC — within error, 1.004 ± 0.0099
- ATGTATAGGC — within error, 0.962 ± 0.06
- GCACATGGTG — higher, 1.05 ± 0.021
- TGGTCCCCGG — within error, 0.997 ± 0.025
- GAATCACTAA — within error, 1 ± 0.059
- GACGGCTGGT — within error, 1.01 ± 0.021
- TATAAGTGAT — within error, 1.17 ± 0.26
- GTAGGGCGGG — within error, 0.979 ± 0.043
- TAGGTTAACT — within error, 0.956 ± 0.024
- CGAAAGTAGC — within error, 1.01 ± 0.013
- GATGGATTTG — within error, 1.02 ± 0.033
- GTGATGGGAC — higher, 1.02 ± 0.0077
- CAAGGGGGCG — within error, 0.994 ± 0.048
- TGCGATTAAG — within error, 1 ± 0.047
- ATATCGGATG — higher, 1.071 ± 0.0078
- AGGGCGGTGT — within error, 0.991 ± 0.027
- TTTACGGCCC — within error, 1.07 ± 0.12
- AAAACTTAGG — within error, 0.978 ± 0.012
- AACGCTATGT — higher, 1.05 ± 0.023
- ACCAGGGTCA — higher, 1.05 ± 0.034
- ATTCATTCAG — within error, 0.9865 ± 0.0047
- CTGTAAAGAG — the same, 0.99 ± 0.035
- TTGATGTTGG — within error, 0.992 ± 0.048
- GATTTAGCTG — within error, 1 ± 0.035
- TGGATCATAA — within error, 0.973 ± 0.068
- TCTGGGGGGC — within error, 0.996 ± 0.075
- TTGTATCCTG — lower, 0.9637 ± 0.0011
- AGTTGCTAAG — within error, 0.986 ± 0.035
- TCTTAGTAC — higher, 1.05 ± 0.013
- CGGCTAACAA — within error, 1.02 ± 0.013
- ACGGTATGTG — within error, 1.03 ± 0.033
- ATTATGAATT — within error, 1.01 ± 0.021
- ATTTCATGG — within error, 0.97 ± 0.057
- ACGATAGGTA — higher, 1.06 ± 0.026
- AAGGTTAAGT — within error, 1.02 ± 0.016
- ATTCAGGGGG — higher, 1.07 ± 0.028
- TGTCATTCGC — higher, 1.047 ± 0.0074
- AAATGCTTG — within error, 0.983 ± 0.019
- CGGAGATCGG — within error, 0.999 ± 0.013
- ACTCAATCTG — higher, 1.0397 ± 0.00024
- TTGTTGGTAC — within error, 1.15 ± 0.23
- GGCTTAAGTA — within error, 0.9833 ± 0.0084
- AAGAGTGGGA — higher, 1.03 ± 0.011
- TTGTATGGG — within error, 0.984 ± 0.015
- TTATTACGCT — within error, 0.9981 ± 0.0094
- TGTTTAAATT — within error, 0.983 ± 0.013
- ATCTATGGGT — within error, 0.987 ± 0.01
- GTTTTTTTTA — within error, 0.989 ± 0.037
- TTGACCGGAA — higher, 1.14 ± 0.038
- CGGAGAAAGG — within error, 1.03 ± 0.069
- AAATTGGACA — within error, 1.04 ± 0.049
- CCTTTAGATG — within error, 1.03 ± 0.04
- GGGAATAATG — within error, 1.01 ± 0.0091
- TGGTTGGGCC — within error, 0.985 ± 0.06
- GATAGAAAGC — within error, 0.9852 ± 0.0027
- GCGTAATGGG — within error, 0.975 ± 0.02
- GGTCGCGGGT — within error, 1 ± 0.038
- TTTGGTAGTT — within error, 0.987 ± 0.015
- GGGACGGCGG — within error, 1.004 ± 0.0087
- TTGGGTCATA — within error, 1.01 ± 0.039
- TCGATGGCAT — higher, 1.31 ± 0.065
- TTTGTGTAAA — within error, 1 ± 0.032
- TCCTAGAAC — within error, 0.997 ± 0.026
- TTAGTGCTCC — higher, 1.039 ± 0.0018
- TATCCGTGGG — within error, 0.973 ± 0.051
- GGCTTCCCGG — higher, 1.16 ± 0.002
- AATGTTCTTT — within error, 0.977 ± 0.062
- GACTATTAGA — within error, 0.9918 ± 0.0057
- TAGATCAATG — within error, 1.02 ± 0.024
- TGCAGAAATT — within error, 0.98 ± 0.059
- GGGGGACAGC — within error, 0.992 ± 0.023
- GCTGTTTTTA — within error, 0.981 ± 0.022
- GAGTGAAATG — within error, 1.02 ± 0.023
- TGTTAATCAC — within error, 1.02 ± 0.034
- TCGTGGGGGA — within error, 1.02 ± 0.028
- TAGTCATTAA — within error, 1.002 ± 0.0028
- TAATGTGTCG — higher, 1.021 ± 0.0042
- ACTGGTTTAG — within error, 0.9975 ± 0.0095
- GGTATCGGTT — within error, 0.992 ± 0.045
- GACAGCGGGT — within error, 1.01 ± 0.015
- AGGTAGGCCT — within error, 0.991 ± 0.025
- AGGTATGGCC — within error, 1.04 ± 0.091
- TTGGTTTGCC — within error, 0.982 ± 0.029
- CGGGATTTAA — within error, 1.03 ± 0.054
- GGCGTGCGTA — within error, 1.01 ± 0.026
- AAAGTTGCAG — within error, 1.02 ± 0.023
- AGGATATTGG — within error, 1.01 ± 0.02
- TGGTTATACT — within error, 0.973 ± 0.052
- TGCTCGGATG — within error, 0.993 ± 0.03
- AATAGCATTG — within error, 0.972 ± 0.029
- TTCTCTAATG — higher, 1.03 ± 0.016
- CAAAATTGCA — within error, 1.02 ± 0.016
- AGGTTAGCGT — within error, 0.9946 ± 0.0013
- TCCACGGGG — higher, 1.12 ± 0.057
- AATGGGGACT — within error, 1 ± 0.012
- TTTCTTCGGG — within error, 1 ± 0.019
- CTCGTTCCTG — within error, 1 ± 0.031
- TTAAGCAACA — higher, 1.13 ± 0.018
- GGGGGAGACA — within error, 0.997 ± 0.027
- CCATTATATC — within error, 1.01 ± 0.047
- ACCACGGGGT — within error, 1.02 ± 0.038
- GTATGATTTA — within error, 0.989 ± 0.037
- TGGATATGGT — within error, 1.01 ± 0.013
- AATTGTGGGC — within error, 0.978 ± 0.047
- AGGCTTGTTT — within error, 0.996 ± 0.015
- AAGGTACCAG — within error, 1.03 ± 0.036
- CTTTGTCTGA — higher, 1.022 ± 0.0085
- CGATGTTTTT — within error, 0.957 ± 0.029
- TAATTTGTTT — within error, 1.03 ± 0.025
- TGCGGGGAAT — within error, 0.9707 ± 0.0068
- GGATTGATGT — within error, 0.972 ± 0.011
- AAGAGTAGGA — within error, 0.989 ± 0.0099
- AAGAGAACGG — within error, 1.04 ± 0.091
